{"source": "patent US12383572B2", "about": "“Administration of an anti-activin-a compound to a subject” (AMGEN INC., priority 2013, dated 2025)", "molecules": {"B1": {"name": "sActRIIB: extracellular domain of human activin type-2B receptor fused to IgG2 Fc; full length SEQ ID NO: 21 (Table 9) (protein, listed as Homo sapiens)", "chain": "ETRWCIYYNANWELERTNQSGLERCEGEQDKRLHCYASWRNSSGTIELVKKGCWLDDFNCYDRQECVATEENPQVYFCCCEGNFCNERFTHLPEAGGPEVTYEPPPTAPTGGGGSVECPPCPAPPVAGPSVFLFPPKPKDTLMISRTPEVTCVVVDVSHEDPEVQFNWYVDGVEVHNAKTKPREEQFNSTFRVVSVLTVVHQDWLNGKEYKCKVSNKGLPAPIEKTISKTKGQPREPQVYTLPPSREEMTKNQVSLTCLVKGFYPSDIAVEWESNGQPENNYKTTPPMLDSDGSFFLYSKLTVDKSRWQQGNVFSCSVMHEALHNHYTQKSLSLSPGK"}}, "key": {"[1]": {"system": "VEGF, Ang-1, osteopontin, CD31 in TOV-21G tumors", "assay": "Immunostaining of angiogenesis factors and CD31 in TOV-21G xenograft tumor sections", "format": "in vivo, human", "details": "treated vs untreated sections", "procedure": "TOV-21G xenograft. 5×10^6 TOV-21G ovarian cancer cells were implanted subcutaneously into individual female athymic nu/nu mice (Harlan). Treatment was initiated at day 12 after tumor implantation, when the average tumor volume reached approximately 150 mm^3. The mice received PBS, sActRIIB (30 mg/kg, SC, 1×/week) or activin-A antibody (30 mg/kg, SC, 2×/week). In a separate chemotherapy combination experiment, the mice were treated with PBS, sActRIIB (10 mg/kg, SC, 1×/week), 5-FU (50 mg/kg, IP, 3 cycles, 4 daily injections per cycle) or sActRIIB and 5-FU combination at the same doses above. Zinc-formalin fixed paraffin tumor tissue sections of 4 μm in thickness were prepared. The sections were subjected to antigen retrieval by microwave 3 min in Unmask solution (Vector H-3300) followed by incubation in 10 μg/ml Proteinase-K for 20 min and in 1% H2O2 in dH2O for 10 min at room temperature. The sections were further incubated in 0.1% Tween-20 in PBS for 3 min to permeabilize the cell membrane and in goat serum for 30 min to block non-specific binding. The sections were then incubated at room temperature with specific primary antibody for 3 hours followed by incubation in biotinylated or fluorescently labeled secondary antibody. […] The immunostained tissue sections were analyzed and photographed using a Nikon Eclipse 90i microscope equipped with DS-Ril camera. […]"}, "[2]": {"system": "endoglin, osteopontin, IGFBP-1, and IGFPB-2", "assay": "Western blot of endoglin, osteopontin, IGFBP-1, IGFBP-2 in inh-KO ovarian tumors", "format": "in vivo, mouse", "details": "inh-KO mice", "procedure": "Protein extracts were prepared from cell cultures or tissues in T-PER tissue protein extraction reagent (Pierce) containing a mixture of protease inhibitors (Roche). A pool of 50 μg total protein for each group containing equal amounts of protein extract isolated from individual animals was separated by NuPAGE 4-12% Bis-Tris gel (Invitrogen) and transferred to PVDF. The membranes were probed with primary antibodies against total Smad2, p-Smad2 or E-cadherin (1:1000; Cell Signaling), endoglin, osteopontin (1:500; R & D Systems), IGFBP-1, IGFBP-2 (1:500; Abcam) followed by HRP-conjugated secondary antibody (1:2000; Cell Signaling). The membranes were stripped and re-probed with antibody against α-tubulin (1:1000; Cell Signaling)."}, "[3]": {"system": "ovarian tumors in Inhα KO mice", "assay": "sActRIIB single dose, withdrawal and re-administration in female Inhα KO mice: ovarian tumor weight", "format": "in vivo, mouse", "procedure": "(§1) Eleven-to-fourteen-week-old female Inhα KO mice with body weight from 19.41 to 26.82 grams were subcutaneously (SC) injected with either 30 mg/kg sActRIIB or PBS. Age-matched WT littermate control mice were injected with PBS and served as baseline controls. The study ended by necropsy 2 weeks after injections. Two cohorts of mice were used in the study. Eleven-to-thirteen-week-old female Inhα KO mice with body weight from 17.7 to 27.4 grams were SC injected with either 30 mg/kg sAcLRIIB or PBS. Age-matched WT littermate control mice were injected with PBS and served as baseline controls. The withdrawal lasted for 8 weeks. At the end of the withdrawal, the sActRIIB treated mice were divided by balanced body weight into 2 groups (Group 3 and Group 4).\n(§2) Group 2 and Group 3 were euthanized to examine the ovarian tumors. Group 4 received another dose of 30 mg/kg sActRIIB and the mice were euthanized together with the WT mice 4 weeks later (total 12 weeks). Mouse body weights were recorded once per week up to 12 weeks. For necropsy, mice were euthanized in a CO2 chamber. Normal ovaries in WT mice and ovarian tumors in Inhα KO mice were collected and weighed. All results were expressed as the mean±standard error of the mean (SEM). Statistical significance of difference between groups was analyzed using Student's 2-tailed t-test on MS Excel 5.0 software. The Chi-Square test (GraphPad Software Inc, San Diego, CA) was used to examine the differences in animal survival time. Statistical significance between groups is represented by p<0.05 values."}, "[4]": {"assay": "sActRIIB single dose in female Inhα KO mice: survival", "format": "in vivo, mouse", "procedure": "as §1\nas §2, with “The Chi-Square test (GraphPad Software Inc, San Diego, CA) was used to examine the differences in animal survival time. Statistical significance between groups is represented by p<0.05 values.” left out"}, "TOV-21G xenografts": {"system": "TOV-21G xenografts", "assay": "TOV-21G xenograft, sActRIIB and 5-FU chemotherapy combination", "format": "in vivo, human", "details": "nude mice; sActRIIB 10 mg/kg SC 1x/week, 5-FU 50 mg/kg IP 3 cycles, alone or together", "procedure": "TOV-21G xenograft. 5×10^6 TOV-21G ovarian cancer cells were implanted subcutaneously into individual female athymic nu/nu mice (Harlan). Treatment was initiated at day 12 after tumor implantation, when the average tumor volume reached approximately 150 mm^3. The mice received PBS, sActRIIB (30 mg/kg, SC, 1×/week) or activin-A antibody (30 mg/kg, SC, 2×/week). In a separate chemotherapy combination experiment, the mice were treated with PBS, sActRIIB (10 mg/kg, SC, 1×/week), 5-FU (50 mg/kg, IP, 3 cycles, 4 daily injections per cycle) or sActRIIB and 5-FU combination at the same doses above. For all xenograft experiments, the tumor sizes were measured longitudinally by using an electronic caliper. Immediately prior to the 1st dose, the tumor-bearing mice were randomized to ensure even distribution in tumor sizes across different groups. Tumor volumes (mm^3) were calculated as tumor length (mm)×tumor width (mm)×tumor height (mm). Tumor weights were determined by necropsy."}}, "note": "“Also recorded” adds a separate entry of the source."}
{"molecule": "B1", "values": [{"measurement": "CD31 immunostaining (newly formed microvessels)", "setting": "[1]", "result": "lack of such new microvessels"}, {"measurement": "VEGF and Ang-1 immunostaining in tumor sections", "setting": "[1]", "result": "virtually none in the sActRIIB-treated sections"}, {"measurement": "induction of endoglin, osteopontin, IGFBP-1 and IGFBP-2 proteins", "setting": "[2]", "result": "abolished completely"}, {"measurement": "ovarian tumor weight at 8 weeks after withdrawal from the initial single dose", "setting": "[3]; 30 mg/kg SC", "result": "grown in size similar to that of the PBS-treated Inhα KO mice"}, {"measurement": "ovarian tumor weight two weeks after a single dose", "setting": "[3]; 30 mg/kg SC", "result": "reduced to the WT control level"}, {"measurement": "ovarian tumor mass at week 12 (4 weeks after re-administration)", "setting": "[3]; re-administration 30 mg/kg at week 8, 30 mg/kg", "result": "effectively reduced the tumor mass; also recorded: effectively regressed the ovarian tumor mass to the size of the WT control group"}, {"measurement": "survival rate at week 8", "setting": "[4]; single dose 30 mg/kg SC", "result": 94, "unit": "%"}, {"measurement": "survival curves, sActRIIB vs. PBS", "setting": "[4]; single dose, chi-square test", "result": "significantly different"}, {"measurement": "rate of tumor growth", "setting": "TOV-21G xenografts", "result": "decreased the rate of tumor growth significantly"}]}
